In PMC7081899:

Molecular target: BG505_mut123_N241 SOSIP (HIV-1 (subtype A, BG505)) (UniProt Q2N0S6)
Experiment: negative-stain EM

B1: 13B Fab (Fab, V domains shown)
VH: LEESGGGLVQPEGSLTLTCKASGFDFSDYHVQWVRQSPGKGLEFIGGIAYTGNIYYASWAKGRFTISKTSSTTVTLQMTTLTAADTATYFCARAYGYASAPYAQYFNLWGPGTLVTVSS
VL: DIVMTQTPASVSEPVGGTVTINCQASQSRGNNYLSWYQQKPGQSPSLLIYRTSTLASGVPSRFKGSGSGTQFTLTISDLECADAATYYCLYGYYSSRNPDFAFGGGTEVVVK
**Q.** B1 was tested. Which percent of particles that were trimers with no Fab bound did it give?
**A.** 57%

**Q.** What about the percent of particles with one Fab bound of the same binder?
**A.** 43%
